Here are results for 2 molecules from paper PMC5976663, “Mapping of Adenovirus of serotype 3 fibre interaction to desmoglein 2 revealed a novel ‘non-classical’ mechanism of viral receptor engagement” (Scientific Reports, 2018).

The labels stand for the following.
B1: DSG2 EC2-3 after MBP removal (digested DSG2 EC2-3, bacterial) (domain or fragment, human, UniProt Q14126 149-386, looked up)
chain: VLDINDNEPVFTQDVFVGSVEELSAAHTLVMKINATDADEPNTLNSKISYRIVSLEPAYPPVFYLNKDTGEIYTTSVTLDREEHSSYTLTVEARDGNGEVTDKPVKQAQVQIRILDVNDNIPVVENKVLEGMVEENQVNVEVTRIKVFDADEIGSDNWLANFTFASGNEGGYFHIETDAQTNEGIVTLIKEVDYEEMKNLDFSVIVANKAAFHKSIRSKYKPTPIPIKVKVKNVKEGI
notes: Theoretical mass 27.8 kDa after TEV cleavage; not glycosylated (bacterial); also called MBP-free EC2-3; source: E. coli Rosetta(DE3)pLysS, co-expressed with His-Ad3K; co-purified (His GraviTrap), TEV-cleaved, second His GraviTrap, Superdex 200; not shown: MBP, N-terminal, cleaved
B2: N-terminal His-tagged recombinant Ad3 fibre knob (His-Ad3K) (domain or fragment)
chain: NSIALKNNTLWTGPKPEANCIIEYGKQNPDSKLTLILVKNGGIVNGYVTLMGASDYVNTLFKNKNVSINVELYFDATGHILPDSSSLKTDLELKYKQTADFSARGFMPSTTAYPFVLPNAGTHNENYIFGQCYYKASDGALFPLEVTVMLNKRLPDSRTSYVMTFLWSLNAGLAPETTQATLITSPFTFSYIREDD
notes: human adenovirus serotype 3 (HAd3) fibre protein, knob, Asn124 to Asp319 of the full-length protein, GenBank ABB17809.1; The printed GenBank entry holds; also called HAd3 fibre knob; trimeric knob; source: E. coli Rosetta(DE3)pLysS, pETDuet-1; purified (His GraviTrap, Superdex 200); also co-expressed with MBP-DSG2 constructs, in lysate; not shown: His6, N-terminal, kept

Data set [1] deals with B2. Kind of data set: AUC; sedimentation velocity (headed SE-AUC), 42,000 rpm, 20 °C, 3 mM CaCl2, 10 mM Tris pH 8.0, 150 mM NaCl; c(s) by SedFit; co-purified MBP-free complex, and His-Ad3K alone; two concentrations. As to conditions: both partners purified.
The target in data set [2] is B2. Nature of the data set: SEC-MALS; 50 uL at 1 mg/mL on Superdex 200 Increase 10/300 GL, 150 mM NaCl, 3 mM CaCl2, 10 mM Tris-Cl pH 8.0, 0.5 mL/min; co-expressed and co-purified MBP-free complex, and His-Ad3K alone. As to conditions: both partners purified.
Data set [3] concerns the molecule itself. The description is as above.

With B1, the “stoichiometry N” value in data set [1] is 1 receptor per trimeric knob; in data set [2], 1 DSG2 EC2-3 per His-Ad3K trimer.
Consider B2, for which the “stoichiometry N” value in data set [3] was 3.
